According to US20200247894A1 (Regeneron, published 2020):
One block for each binder: values may come before it.

Legend:
[1] = biological target: T1, human IL2Rγ (endogenously expressed on cells) (human, UniProt P31785 23-369); assay: cell-based or functional assay
T1 sequence (looked up): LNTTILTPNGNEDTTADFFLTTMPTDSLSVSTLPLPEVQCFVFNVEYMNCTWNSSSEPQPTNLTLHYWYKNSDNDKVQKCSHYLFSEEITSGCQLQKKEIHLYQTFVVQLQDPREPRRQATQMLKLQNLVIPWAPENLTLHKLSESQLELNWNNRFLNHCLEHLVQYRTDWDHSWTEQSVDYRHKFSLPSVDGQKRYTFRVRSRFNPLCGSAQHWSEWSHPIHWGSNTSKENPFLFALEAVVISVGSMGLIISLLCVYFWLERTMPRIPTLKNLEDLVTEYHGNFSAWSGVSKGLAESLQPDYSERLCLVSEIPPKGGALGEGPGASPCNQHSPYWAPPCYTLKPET

[2] = biological target: T1, human IL2Rγ (endogenously expressed on …); assay: cell-based or functional assay; remark: listed apart in the source
[3] = biological target: T2, D1 domain of human IL-2Rγ extracellular domain expressed with a C-terminal myc-myc-hexahistidine tag (human); assay: SPR, mAb captured on anti-hFc, 25 C
T2 construct: also called human IL2Rγ domain 1
T2 chain: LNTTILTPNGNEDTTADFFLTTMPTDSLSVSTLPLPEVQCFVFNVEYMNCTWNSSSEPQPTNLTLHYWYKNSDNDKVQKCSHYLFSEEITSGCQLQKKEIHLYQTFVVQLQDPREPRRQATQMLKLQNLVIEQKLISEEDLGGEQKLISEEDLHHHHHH
Outline: (§1)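 First, a mouse anti-human Fc antibody was amine-coupled to the chip; test mAbs were then captured and IL2Rγ reagents bound in HBS-ET, pH 7.4. Dissociation was tracked for 8-10 minutes before 1:1 fitting of the sensorgrams.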

[4] = biological target: T3, D2 domain of human IL2Rγ extracellular domain expressed with a C-terminal myc-myc-hexahistidine tag (human); assay: SPR, mAb captured on anti-hFc, 25 C
T3 construct: also called human IL2Rγ domain 2
T3 chain: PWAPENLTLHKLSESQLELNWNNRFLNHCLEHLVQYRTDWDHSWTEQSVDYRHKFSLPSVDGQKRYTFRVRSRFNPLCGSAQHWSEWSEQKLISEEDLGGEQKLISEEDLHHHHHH
Outline: (§2)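 Anti-IL2Rγ antibodies held on an anti-human Fc capture surface with receptor binding to them.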

[5] = biological target: T2, D1 domain of human IL-2Rγ extracellular …; assay: SPR, mAb captured on anti-hFc, 37 C
Outline: as §1

[6] = biological target: T1, human IL2Rγ (endogenously expressed on …); assay: cell-based or functional assay; remark: listed apart in the source
[7] = biological target: T3, D2 domain of human IL2Rγ extracellular …; assay: SPR, mAb captured on anti-hFc, 37 C
Outline: as §2

[8] = biological target: T4, Human IL2Rγ extracellular domain expressed with a C-terminal mouse IgG2a Fc tag (human); assay: SPR Biacore 4000, anti-hFc-captured mAb, 37 C; no dissociation observed, kd manually fixed at 1.00E-05
T4 construct: whole entry is the Fc-fused construct; also called hIL-2Rg-mFc
T4 chain: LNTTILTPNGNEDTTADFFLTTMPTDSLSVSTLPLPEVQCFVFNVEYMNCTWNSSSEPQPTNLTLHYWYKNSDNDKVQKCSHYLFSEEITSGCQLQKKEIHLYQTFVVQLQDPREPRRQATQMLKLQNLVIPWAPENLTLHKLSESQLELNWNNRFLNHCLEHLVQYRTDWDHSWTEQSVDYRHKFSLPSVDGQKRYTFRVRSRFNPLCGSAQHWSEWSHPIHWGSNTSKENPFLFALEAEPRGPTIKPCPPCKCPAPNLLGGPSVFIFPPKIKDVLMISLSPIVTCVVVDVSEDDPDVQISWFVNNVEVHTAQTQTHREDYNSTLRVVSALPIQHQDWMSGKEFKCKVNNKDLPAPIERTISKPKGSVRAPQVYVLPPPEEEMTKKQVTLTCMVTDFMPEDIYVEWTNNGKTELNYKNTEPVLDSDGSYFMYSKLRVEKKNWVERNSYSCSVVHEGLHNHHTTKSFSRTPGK

[9] = biological target: T4, Human IL2Rγ extracellular domain …; assay: SPR Biacore 4000, anti-hFc-captured mAb, 37 C; computed with kd fixed at 1.00E-05
Description: (§3) Equilibrium dissociation constants (KD values) for IL-2Rγ binding to purified anti-IL2Rγ monoclonal antibodies were determined using a Biacore 4000 instrument equipped with a real-time surface plasmon resonance biosensor. All binding studies were performed in 10 mM HEPES, 150 mM NaCl, 3 mM EDTA, and 0.05% v/v Surfactant Tween-20, pH 7.4 (HBS-ET) running buffer at 25° C. and 37° C. The Biacore sensor surface was first derivatized by amine coupling with a monoclonal mouse anti-human Fc antibody (GE, # BR-1008-39) to capture anti-IL2Rγ monoclonal antibodies.
(§4) The dissociation of monoclonal antibody bound IL2Rγ reagents were monitored for 8-10 minutes in HBS-ET running buffer. Kinetic association (kₐ) and dissociation (kd) rate constants were determined by fitting the real-time sensorgrams to a 1:1 binding model using Scrubber 2.0c curve fitting software. Binding dissociation equilibrium constants (KD) and dissociative half-lives (t_{1/2}) were calculated from the kinetic rate constants as: […]

[10] = biological target: T4, Human IL2Rγ extracellular domain …; assay: SPR Biacore 4000, anti-hFc-captured mAb, 25 C
Outline: as §1

[11] = biological target: T5, Mouse IL2Rγ extracellular domain expressed with a C-terminal myc-myc-hexahistidine tag (mouse); assay: SPR Biacore 4000, anti-hFc-captured mAb, 25 C
T5 construct: whole entry is the tagged construct; also called mIL-2Rg-MMH
T5 chain: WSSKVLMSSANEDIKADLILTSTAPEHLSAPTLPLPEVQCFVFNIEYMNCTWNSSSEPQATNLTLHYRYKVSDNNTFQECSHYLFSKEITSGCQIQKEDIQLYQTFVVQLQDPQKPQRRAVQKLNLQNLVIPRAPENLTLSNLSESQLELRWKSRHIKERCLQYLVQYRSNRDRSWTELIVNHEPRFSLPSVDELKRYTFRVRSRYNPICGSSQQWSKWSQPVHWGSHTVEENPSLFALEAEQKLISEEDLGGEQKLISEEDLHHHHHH
Outline: as §1

[12] = biological target: T6, Rat IL2Rγ extracellular domain expressed with a C-terminal myc-myc-hexahistidine tag (rat); assay: SPR Biacore 4000, anti-hFc-captured mAb, 25 C
T6 construct: whole entry is the tagged construct; also called rIL-2Rg-MMH; rat IL-2Rg-MMH
T6 chain: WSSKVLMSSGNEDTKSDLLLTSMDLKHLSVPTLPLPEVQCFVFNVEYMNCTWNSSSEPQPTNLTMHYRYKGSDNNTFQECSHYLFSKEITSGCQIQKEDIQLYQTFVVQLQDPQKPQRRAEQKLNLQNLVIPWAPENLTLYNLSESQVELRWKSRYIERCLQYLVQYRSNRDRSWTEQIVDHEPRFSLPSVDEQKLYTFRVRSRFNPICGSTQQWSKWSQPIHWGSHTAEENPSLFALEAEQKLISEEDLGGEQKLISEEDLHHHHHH
Outline: as §1

[13] = biological target: T4, Human IL2Rγ extracellular domain …; assay: SPR Biacore 4000, anti-hFc-captured mAb, 37 C
Outline: as §1

[14] = biological target: T5, Mouse IL2Rγ extracellular domain …; assay: SPR Biacore 4000, anti-hFc-captured mAb, 37 C
Outline: as §1

[15] = biological target: T7, Macaca fascicularis IL2Rγ extracellular domain expressed with a C-terminal myc-myc-hexahistidine tag (Macaca fascicularis); assay: SPR Biacore 4000, anti-hFc-captured mAb, 37 C
T7 construct: whole entry is the tagged construct; also called mfIL-2Rg-MMH
T7 chain: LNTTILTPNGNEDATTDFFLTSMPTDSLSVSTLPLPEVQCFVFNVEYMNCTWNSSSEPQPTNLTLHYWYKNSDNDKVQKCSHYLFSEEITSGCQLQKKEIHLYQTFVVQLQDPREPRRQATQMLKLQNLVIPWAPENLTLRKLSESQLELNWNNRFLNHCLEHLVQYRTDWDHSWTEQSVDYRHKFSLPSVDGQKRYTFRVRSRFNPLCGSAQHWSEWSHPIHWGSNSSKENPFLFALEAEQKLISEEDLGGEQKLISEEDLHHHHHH
Outline: as §1

[16] = biological target: T6, Rat IL2Rγ extracellular domain …; assay: SPR Biacore 4000, anti-hFc-captured mAb, 37 C
Outline: as §1

[17] = biological target: T2, D1 domain of human IL-2Rγ extracellular …; assay: SPR, mAb captured on anti-hFc, 25 C; 25 C
Description: as §3, §4

- IC50; IL-2 (10 nM)-induced STAT phosphorylation, human CD4+ T cells [1]: 2.06 nM
- IC50; IL-4 (50 pM)-induced STAT phosphorylation, human CD4+ T cells [1]: 1.1e-09 M
- IC50; IL-7 (1 pM)-induced STAT phosphorylation, human CD4+ T cells [1]: 8.92e-10 M
- IC50; IL-15 (0.5 nM)-induced STAT phosphorylation, human CD4+ T cells [1]: 2.55 nM
- IC50; IL-21 (50 pM)-induced STAT phosphorylation, human CD4+ T cells [1]: 2.28e-09 M
- IC50; IL-9 (2 nM)-induced STAT3 phosphorylation, in vitro differentiated human mast cells [2]: 0.441 nM
- 100 nM Ag Bound [3]: 38 RU
- Kd [3]: 5.34 nM
- koff [3]: 0.00107 s⁻¹
- kon [3]: 200000 M⁻¹ s⁻¹
- t½ [3]: 11 min
- 100 nM Ag Bound [4]: 0 RU
- binding result [4]: no binding (tested: 100 nM)
- 100 nM Ag Bound [5]: 16 RU
- Kd [5]: 20 nM
- koff [5]: 0.00507 s⁻¹
- kon [5]: 254000 M⁻¹ s⁻¹
- t½ [5]: 2.3 min
- IC50; IL-2 30 pM; NK92/hIL7R/STAT3-luc [6]: 2.7e-08 M
- IC50; IL-4 250 pM; Ramos.2G6.4C10/STAT3-luc [6]: 1.9e-09 M
- IC50; IL-7 50 pM; NK92/hIL7R/STAT3-luc [6]: 3e-09 M
- IC50; IL-9 20 pM; NK92/hIL7R/STAT3-luc [6]: 7.1e-09 M
- IC50; IL-15 60 pM; NK92/hIL7R/STAT3-luc [6]: 8.5e-09 M
- IC50; IL-21 5 pM; NK92/hIL7R/STAT3-luc [6]: > 1e-07 M
- Max Inhibition (%); IL-2 30 pM; NK92/hIL7R/STAT3-luc [6]: 81%
- Max Inhibition (%); IL-4 250 pM; Ramos.2G6.4C10/STAT3-luc [6]: 101%
- Max Inhibition (%); IL-7 50 pM; NK92/hIL7R/STAT3-luc [6]: 100%
- Max Inhibition (%); IL-9 20 pM; NK92/hIL7R/STAT3-luc [6]: 100%
- Max Inhibition (%); IL-15 60 pM; NK92/hIL7R/STAT3-luc [6]: 92%
- Max Inhibition (%); IL-21 5 pM; NK92/hIL7R/STAT3-luc [6]: 35%
- 100 nM Ag Bound [7]: 0 RU
B1: H4H12889P (antibody, human IgG4 S228P, kappa, V domains shown)
VH: EVQLVESGGGLVQPGGSLRLSCAASGFIFSSYEMHWVRQAPGKGLEWISYISSSGTTIYYADSVKGRFTISRDNAKNSLYLHMNSLRAEDTAVYYCTRARITGTFDVFDIWGQGTMVTVSS
VL: DIQMTQSPSSLSASVGDRVTITCRASQSISSYLNWYQQKPGKAPKLLIFAASNLQSGVPSRFSGSRSGTDFTLTISSLQPEDFATYYCQQNYNIPYTFGQGTKLEIKR
notes: human IgG4; also called REGN7257

- koff [8]: ≤ 1e-05 s⁻¹
- Kd [9]: ≤ 0.0448 nM
- t1/2 [9]: ≥ 1160 min
- 50 nM Ag Bound [10]: 82 RU
- Kd [10]: 0.0564 nM
- koff [10]: 1.75e-05 s⁻¹
- kon [10]: 310000 M⁻¹ s⁻¹
- t1/2 [10]: 661 min
- 100 nM Ag Bound [11]: 2 RU
- binding result [11]: no binding (tested: 100 nM)
- 100 nM Ag Bound [12]: 3 RU
- binding result [12]: no binding (tested: 100 nM)
- 50 nM Ag Bound [13]: 47 RU
- kon [13]: 223000 M⁻¹ s⁻¹
- 100 nM Ag Bound [14]: 2 RU
- 100 nM Ag Bound [15]: 44 RU
- Kd [15]: 4.18 nM
- koff [15]: 0.00129 s⁻¹
- kon [15]: 308000 M⁻¹ s⁻¹
- t1/2 [15]: 9 min
- 100 nM Ag Bound [16]: 5 RU
B2: H4H12922P2 (antibody, human IgG4 S228P, kappa, V domains shown)
VH: QVQLVESGGGVVKPGGSLRLSCAASGFTFSNSGIHWVRQAPGKGLEWVALISYAGSNKYYADSVKGRFTISRDNSKNTLSLQMNSLRAEDTAVYYCAKEVWTGTYDSFDMWGRGTMVTVSS
VL: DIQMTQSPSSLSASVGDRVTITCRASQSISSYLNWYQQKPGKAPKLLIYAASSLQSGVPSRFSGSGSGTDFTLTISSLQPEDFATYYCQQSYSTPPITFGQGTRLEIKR
notes: fully human anti-IL2Rgamma mAb, human IgG4 Fc; also called REGN7256

- Kd [17]: 195 nM
- koff [17]: 0.0273 s⁻¹
- kon [17]: 140000 M⁻¹ s⁻¹
- t½ [17]: 0.4 min
- 100 nM Ag Bound [4]: 0 RU
- binding result [4]: no binding (tested: 100 nM)
- 100 nM Ag Bound [7]: 0 RU
B3: H4H12926P2 (antibody, human IgG4 S228P, kappa, V domains shown)
VH: QVQLQQSGPGLVKPSQTLSLTCAISGDSVSSNIAAWNWIRLSPSRGLEWLGRTFFRSTWFYDYSLSVKGRITINPDTSKNQFSLHLNSVTPEDAAVYYCARTGRRWSLDYWGQGTLVTVSS
VL: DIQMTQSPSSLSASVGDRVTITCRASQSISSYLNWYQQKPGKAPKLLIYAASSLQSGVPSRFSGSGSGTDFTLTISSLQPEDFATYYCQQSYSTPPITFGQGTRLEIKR
notes: human IgG4
